Experimental findings from patent US12077763B2, “RNA-based control of powdery mildew” (Greenlight Biosciences, Inc., priority 2021, dated 2024) are described below.

The data set relates to E. necator. As to the kind of experiment: Leaf disc assay, dry inoculum (settling tower), decrease in disease severity / hyphal growth (Example 2). The settings on record: decrease in disease severity (hyphal growth) relative to untreated control, value ± SE; for % decrease =/− SE TP1: time point 1 (untreated control hyphal growth ≥50%); for % decrease =/− SE TP2: time point 2.

B1: GS1857: dsRNA trigger SEQ ID NO 129; gene target Transcriptional adapter 2 (nucleic acid)
chain: CTTGCTTGAAATTCTTCTCGTGGAATTTCTTCAAGAAGCTGAGTATCCTTGAGACTAGCTCTAACAGGTAGGGGAAACTTTGGACTATCCAGATAAACTTTCTGATAATGCGCCTTAACTTCGTCCTTGTCTCGATAACCTCCAATATGGTCTGCTATATCTGCCCATGATCCAAAGCCATATATTTCGGCTCCCTCCAAAAGAAGTAATTCTTCATCAGCACCCCAGTTTCTGTCATATATGGGAACTGAATTTTGCTCTATTACTCGGTATGGATGGGTTCCTGGGTTGTGGTTGTGTGAAGCTTCGCCATTTGAGAAGCATAGCACACAAAGATCATAATCATGACAGTGAGGGTCAGCACACCTAATTCGAACTGTCGAGGTAATGTCTGCTGAGCATACATCGCATACATACTTAACACCTCCCTCGGCACCTCGGGTCGCAGTCTTCTTCCTGATTTGGCCCATTGCTAAAACTCATGGTCAGTACTAGCAACAGAGCTCCCCTTGGTAGCACGAAGTTAAAACTGCAAATCCTTAAAATTTT
For B1, the “% decrease =/− SE TP1” value was 28 ± 5% and the “% decrease =/− SE TP2” value is on record as 14 ± 7%.

B2: GS1863: dsRNA trigger SEQ ID NO 167; gene target Chromatin remodeling factor mit1 (nucleic acid)
chain: TTGAGCCAAAATAAGAAACGACACGTAGCTTTGGAGCCCATTTTTTAATTTCTCGACGCCAATTAAGGCAAGTCGAATTAGGAGCTACAACTAAAAAGGGCCAACATTTCGAGTGATTTTTGACAATTGCTACGATAAAGGCAATAATTTGTATTGTCTTTCCTAAGCCCATCTCATCTGCTAGAATAACATTTTTCTTTTGATGGAAGTTATAAAGTAGCCAATTTAGACCTTCCATTTGATATTGCATCATCTTTCCTCCTGTGAGTTGTAGAGGTTGCTCTTTCATCTCAACTCTTCTTGAAAAATTTAATTTTCGGAACATCTGTAAGCGATGGTCCATAGCTGAAGTTGAGGATTGCCTAAAGTATTTTCCATCAATAAATTCATTATAGGCGGTAATAAAGCTTTGATATCTTTCGATATTCTCAATTTTTGGGGGCTCCATCCATACTGCTTCATCATAAGCAAGACCTTTGAATTTTACAAAGACTTCAGTGATCATATTAGCAGCAGCCTTGTCTATCTT
For B2, the “% decrease =/− SE TP1” value turned out to be 6 ± 5%.

B3: GS1862: dsRNA trigger SEQ ID NO 149; gene target ATP-dependent RNA helicase dbp10 (nucleic acid)
chain: CTGCCTGGAATTTGACAACGCATGTAGGATTTCATTAAGTTGAGTGCTAAATCCCATTTCGAAAAGTCGATCTGCTTCATCAAATACCACATACTTGACCGAGGAAAGGTCTAATGACATTTCAATCTTAAGGTGTAAGAAGCGACCTGGCGTTGCAATAATAATATCAGGGTTGGCTGCCATAAATCTGAATTGATCTTCAAGACTATCTCCCCCTACAAGAAGAACGCATTTGAGATCAGTGCTCCGAGAAAATTCCTTAACGACTTTCAAAGTCTGCAAGGCAAGCTCTCGAGATGGGGATAGAATCAGAGCTCTAGCACCAACTCGAGCACTATGCGCCTTCAACATTTGAATCATCGGAATAACAAAAGCCGCTGTCTTTCCTGAACCGGTTCTAGCCATTCCCACGACATCTTGATGATCAAGAATCAGAGGTATTGTTTTTCTCTGGATTGGAGTCGGAACATTGAAGCCTTTTCTTTTGATGGCTCTCAAAAGATGAGCATCCAAACCCATAGATTGAAAA
Consider B3, for which the “% decrease =/− SE TP1” value amounted to 26 ± 4% and the “% decrease =/− SE TP2” value amounted to 29 ± 5%.

B4: GS1867: dsRNA trigger SEQ ID NO 126; gene target hypothetical_protein_BGT96224_Ac30495 (nucleic acid)
chain: AAACCGAAATCTACGACAGGTAAAGCATCACGCAATATAACGGCGAAAGCCCACCTGCTATCACCTACTCTCAACGTCCTACGAAAAGATGTTGTTTTCGAGAAAGCGCTCAGTGACATGCATGGCTCTTCCGATAAATACCTAGATAAAGACTCTAGCATGGAAATTAATATAGGTGATGATATCAGCGAGGGGTCGAATGCGGATCCCTTTGCAGAAGAACTCCCCACGCCATCAATAGCGCCAGATACTGCGGTAGCTACCACACTTAACTTAGCACATGGACAGGACGTGAAAGATAATCACAATGCGGCTAGTCTCATGGATGCAATCAAAGGCCTACTAGACTTGACAAATGATTACTTAAAAAATCTTGAAGCACATCACCCAGGAGTTGGGGCAGACTTCTTAGCGCTTCTAGCGGACGGAGCCTCCCGAGCTATGCGCGGAGAGCGAGTTTATTCTAATACATCAAAAGTATGCGAAGGTAGAAAACAAGGAACACAGGCAACATGGACTGA
Regarding B4, the “% decrease =/− SE TP1” value was 7 ± 4%.

B5: GS1859: dsRNA trigger SEQ ID NO 207; gene target Citrate/oxoglutarate carrier protein (nucleic acid)
chain: AGGATCTTCTTTTGCTCTGCATTTCAACTCGAATAACCTCAATTGGTTGATTCCACGCACTCAACCCTCCCCCAAGGGCACTAGCGAGAATTCGTTCCCAAGCACTTAATGGACCGCCATTTTCTTTTCCTGAAACCTTTCGGATTCCCTGTTCTGCCAAACGACTTAATCCAAATCTGGATCCCCAATTCGTCATTTGTCGAATGGCAACAGCATTCACACCTTTATTAATACCTCTGATCCCATCTTTACGGTATATATCCATAAATGTTGAGAAAGTTCCTGGGGGCTTTACACCAGTGGATGCTAATTTGGATTTCGTAATCTCCACAGTTTTCATGCATGTACAAAAGCCCATAGTGGCATATGCTTGAGCCATACCCCCGACAACGCCTCCTGTGATGCCGGCTGTGAAGATGCCGGCTCCAAAACTTCGAGCATAGAATTCTGCTTCTGAAGCGACAAATAGAAGAACTGCACCTTTTGATGAAGCTTCAATCCAAGCCCATGGGATCAAGCCCTGATAAAAACCCAAAACA
Consider B5, for which the “% decrease =/− SE TP1” value amounted to 32 ± 5% and the “% decrease =/− SE TP2” value was 26 ± 7%.

B6: GS1856: dsRNA trigger SEQ ID NO 214; gene target Zinc finger and SCAN domain-containing protein 20 (nucleic acid)
chain: GACCATTGTGGTCTTTCGACAAAATGATTTCAAACAGCCCTCGTGTGCACATTTGTATGGTCTTTTTCCTGTATGAATACGACGATGACGAGCCAGACTAGATGAATCAGAGAATCGTTTCCCACAACCAAGATGCTGGCATTGATGTGGCTTTTCGCCAGTGTGTGTTCGAATGTGCACAGTTAAGGCACTTCTTTGAATGAAACTTTTTCCACATCCAGGCTGCATGCATGAATATGGCCGTTCGTTGGTATGTATTCGATAGTGGCGTTGAAGGTCAGACTTCCTGTTGAAACTCTTGTGACATGTCTGCCAATCACACTGAAATGGTCTCGCATTAGGTTCGTTTTCAACGAGCTCCATTACATCCATAGTGAACCGACAAGTAGTGTCGAATGTATGCAATGTCGGAGAAGTTAAGGGTTGGACAAGAGGTACCGCAGCAAAAGCTGCAGGTGTGGTGATTAGGTGGGGATGGGTGTCGAATATATAAGATTGCGATTCTCTATTTAAAGAAAAAAGAAATATAAGCAAAATAAAATATTTCTTTTGA
Take B6: the “% decrease =/− SE TP1” value was 1 ± 7% and the “% decrease =/− SE TP2” value came out at 6 ± 8%.

B7: GS1866: dsRNA trigger SEQ ID NO 163; gene target Proline-rich protein LAS17 (nucleic acid)
chain: ATATCGGGAGGGGTGGCGGTAATGAGGAAGGCTCTTGAGCTGCTATGAGAGATGGTGATGATTGTGCCTGATGTACTGGAAGTAATGGTAGTGATGATGTTTGAGTAACACGAAGAGATGTTGGCGATGGAGCTGGAGAAACTGAGGGATTTTTTGGTATTTGAGAGACTGTGAAAGATTGAGGTTGTGGACTATTTGGCTCTCTATTCTTTTCACAGTCTCGAGTAGTTATTTGAACACTAGGACGTAACGAGGAAGGAGGCAAAGGAGGTGTTGCTGATGCAGATACTATCGGAATTTTTGGAGGTAATTGGGGAGGAGGGAGATGCTCACTTTTAGCAAGAGGGGTTGTGACTTGGGAAGAACTTGTATGAAAAACACGAGTTAAAGGTGGTATTGTTTCACGTGGTGGTATTAAAGGCCCCGCACGATGTGAAATAAAAGATCCAGTGTTTTTCTCACCTGAAAAAGGTGGTGGTACGTTGAATTTAGAGACGCCCGATTCCGAATTTTCTTTAGAATTTTT
As for B7, the “% decrease =/− SE TP1” value stood at 8 ± 5% and the “% decrease =/− SE TP2” value stood at 13 ± 7%.

B8: GS1865: dsRNA trigger SEQ ID NO 183; gene target Protein transport protein SEC31 (nucleic acid)
chain: TTGAGCTTCTGGGTGTTTTGTAAGAGAGTTTGTGTTAAATAGTGTCTGTATAGAAATTTTGCCATCAAAAGACGCAGTTGCAGAAAGTGCTGGATTATGAGGATGAAATCGAGTCTGAAAGGTCCAGTTTGTAGCTTCAGGAAATTCTCCCAGGAGTTCTCCAAGCTGTGGGTTCCATAAGATAGTTCTATTATCTTTGCCACATGATAACAGCAAATTGCTGTCTTGTTGACACCATGAGATTGATAAAATTCCCTGATTATGGCCTTGTAATGTACATTCTGGTGCATTGGAATTTCGTAAATCCCAAAGAAGAATAACTGGTTTTGTATCATCAGGTGTTGCTGTTAGTAGCTTCGTTGAATTTTCTGGATCCCAAGCAATAGCTCCAACAGCTTTACGATTGTTATTCAAAGTCAATGACGCTTTTTTGGTTTTTAAGTCCCACACTGTAACAAATCCTCCAGTTCCACCAGTAGCCAAAATATGAGGAACTTTCCTATTCCAGGCAACACATTCAAGGTCAT
Turning to B8, the “% decrease =/− SE TP1” value stood at 5 ± 6% and the “% decrease =/− SE TP2” value worked out at 3 ± 10%.

B9: GS1864: dsRNA trigger SEQ ID NO 197; gene target NEDD8-conjugating enzyme UBC12 (nucleic acid)
chain: TTCCAAAAAAAAAACTCATCAGGTTTTTAGAACACAATCAAACGTTTGGCCCTTAATAGTACCGCCAGCCATACTATTTCTAACATTTCTCTTGAATATCTCACGATGATTCCGAAGATCTTCGGCGGCTTCTTTATTCAACGGATCCGAAGAATTTGGCTCTAAAAAGAGAAAAATAATTAAAGAATTCCAGTAGCGAACTAGACCAGAGTAGAGCAGGAAGGAGTATTCGATGATACCTAAAAAAAGACACACACGTTATAAAATGGCTCTAAGAATGGTATTGAGGCTAATGTATATTTTTTTCTTTGAAAAAACAAAAAACAAACAAACAAAAAAATTATGGATAATAAGTAATCCTACCACTACACTCTGTAGATTTAGGACCGGTTTCCAGTCCTCACGCAAGATATTGAGACACACGTTTCCATCAAGATCGATATTTGGATGATAAATCTTTTCTATACATTTTACTTTTGGCGCTTCATGAGGGAAGTTTTGAGAGATAGAAAAAGTGAATTGAAAAC
In the case of B9, the “% decrease =/− SE TP1” value is reported as 5 ± 6% and the “% decrease =/− SE TP2” value is listed as 3 ± 9%.
